Measurements reported in patent US20240383978A1 (NOVAROCK BIOTHERAPEUTICS, published 2024).
Blank lines part the entries; values can stand above or below the binder they belong to.

Columns and labels:
[1] = target: T1, human Nectin-4 (human, UniProt Q96NY8 32-510); assay: immunofluorescence cell binding, CHO cells expressing human Nectin 4, 10 µg/ml per the text
T1 construct: Expressed on CHO cells; also called CHO-Nectin 4
T1 sequence: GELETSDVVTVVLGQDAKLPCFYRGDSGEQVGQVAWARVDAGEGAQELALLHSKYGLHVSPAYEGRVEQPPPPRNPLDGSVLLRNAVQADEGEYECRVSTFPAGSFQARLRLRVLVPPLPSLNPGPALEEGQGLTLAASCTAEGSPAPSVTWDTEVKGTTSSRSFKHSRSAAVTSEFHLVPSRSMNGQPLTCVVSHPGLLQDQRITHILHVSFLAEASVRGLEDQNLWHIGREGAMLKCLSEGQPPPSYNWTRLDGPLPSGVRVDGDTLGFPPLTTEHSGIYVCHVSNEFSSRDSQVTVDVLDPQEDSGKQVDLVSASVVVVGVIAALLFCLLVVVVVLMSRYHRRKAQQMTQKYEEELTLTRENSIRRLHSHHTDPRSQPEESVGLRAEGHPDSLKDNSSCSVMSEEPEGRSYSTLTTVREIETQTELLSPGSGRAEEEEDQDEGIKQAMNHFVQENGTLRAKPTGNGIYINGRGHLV
Protocol: Bispecific Nectin-4/CD137 binding proteins were generated, produced, and purified as described in Example 4. To examine the binding activity of the BsAbs 1925Ab1, 1925Ab2 and 1925Ab3 to Nectin 4, CHO cells expressing human Nectin 4 were used in an immunofluorescence binding assay. The cells were cultured in F12K media with 10% FBS. On the day of the experiment, the cells were collected, washed, and stained with the binding proteins at 4° C. for 2 hours, followed by fixing cells with paraformaldehyde for 15 minutes at room temperature. The disclosed antibodies 1925Ab1, 1925Ab2 and 1925Ab3 are bispecific antibodies that bind to both Nectin-4 and CD137. Monospecific antibody 1925Ab4 (parental murine antibody) only binds to Nectin-4 and is used as a control antibody. The fixed cells were then washed with PBS three times, followed by staining the cells at room temperature for 1 hour with Alexa Fluor® 488 Goat Anti-Human IgG antibody (Invitrogen, Cat #: A-11013) for detection. The binding signal was assessed by quantifying the fluorescence intensity using iQue Screener PLUS (Sartorius, MI).

[2] = target: human CD137 on the cell surface (human, UniProt Q07011 24-255); assay: cell-based or functional assay
Chain of human CD137 on the cell surface (Q07011 24-255): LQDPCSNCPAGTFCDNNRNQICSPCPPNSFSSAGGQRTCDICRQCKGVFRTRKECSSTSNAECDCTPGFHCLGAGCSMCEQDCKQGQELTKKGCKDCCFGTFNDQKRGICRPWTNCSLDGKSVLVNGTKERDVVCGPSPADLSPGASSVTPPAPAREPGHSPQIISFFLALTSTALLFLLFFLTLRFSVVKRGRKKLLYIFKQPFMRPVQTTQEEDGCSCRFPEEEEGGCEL

binding result [1]: binds
B1: 1925Ab4 (antibody, human IgG1, kappa, V domains shown)
VH: QVQLQQSGPELVKPGASVRISCKASGYTFTTYYIHWVKQRPGQGLEWIGWIYPGNVNTKYTENFKDKATLTADKSSSTAYMQLSSLTSEDSAVYFCARGLYYFDFWGQGTTLTVSS
VL: SIVMTQTPKFLLVSAGDRVTITCKASQSVNNDVAWYQQKPGQSPKLLIYYASNRDTGVPDRFTGSGFGTDFTFTISSVQAEDLAVYFCQQDYSSPYTFGGGTKLEIKR
notes: Parental murine anti-Nectin-4 antibody; also called parental murine monoclonal antibody; monospecific anti-Nectin-4 control antibody

EC50 of CD137 signaling (NFKB-luc, Jurkat reporter cells co-cultured with NUGC4 cells) [2]: 0.1 nM
B2: 1901Ab3 (bispecific antibody, human IgG1, kappa, L234A L235A)
heavy: not shown
light: DIQLTQSPSFLSASVGDRVPITCRASQGISNFLAWYQQKPGKAPELLIHSASTLQSGVPSRFSGSGSGTEFTLTISNLQPQDFATYYCQQVNSYPLTFGGGTKVEIKRTVAAPSVFIFPPSDEQLKSGTASVVCLLNNFYPREAKVQWKVDNALQSGNSQESVTEQDSKDSTYSLSSTLTLSKADYEKHKVYACEVTHQGLSSPVTKSFNRGECGGGGSGGGGSGGGGSQVQLVESGGGVVQPGRSLRLSCAASGFTFSNYGMHWVRQAPGKCLEWVAIIWYDGINKYYADSVKGRFTISRDNSKNTLYLQMNSLKAEDTAVYYCARDQDYDILTGYYKEDYFDFWGQGTLVTVSSGGGGSGGGGSGGGGSGGGGSSYELTQPPSVSVSPGQTARITCSGDALPKKYAYWYQQKSGQAPVLVIYEDSKRPSGIPERFSGSSSGTMATLTISGAQVEDEADYYCYSTDSSGNRVFGCGTKLTVL

EC50 of CD137 signaling (NFKB-luc, Jurkat reporter cells with target cells) [2]: 0.027 nM
B3: 1925Ab1 (bispecific antibody, human IgG1, kappa, L234A L235A)
heavy: not shown
light: DIQMTQSPSSLSASVGDRVTITCKASQSVNNDVAWYQQKPGKAPKLLIYYASNRDTGVPSRFSGSGSGTDFTLTISSLQPEDFATYYCQQDYSSPYTFGQGTKLEIKRTVAAPSVFIFPPSDEQLKSGTASVVCLLNNFYPREAKVQWKVDNALQSGNSQESVTEQDSKDSTYSLSSTLTLSKADYEKHKVYACEVTHQGLSSPVTKSFNRGEC

EC50 of CD137 signaling (NFKB-luc, Jurkat reporter cells with target cells) [2]: 0.049 nM
B4: 1925Ab3 (bispecific antibody, human IgG1, kappa, L234A L235A)
heavy: not shown
light: B3 light

EC50 of CD137 signaling (NFKB-Luc, Jurkat reporter cells co-cultured with NEC8 WT cells) [2]: 0.18 nM
B5: 1912Ab4 (bispecific antibody)
heavy: not shown
light: AIQLTQSPSSLSASVGDRVTITCRASQGINSWLAWYQQKPEKAPKSLIYAASSLQSGVPSRFSGSGSGTDFTLTISSLQPEDFATYYCQQYNFYPYTFGQGTKLEIIRTVAAPSVFIFPPSDEQLKSGTASVVCLLNNFYPREAKVQWKVDNALQSGNSQESVTEQDSKDSTYSLSSTLTLSKADYEKHKVYACEVTHQGLSSPVTKSFNRGEC

EC50 of CD137 signaling (NFKB-Luc, Jurkat reporter cells co-cultured with NEC8 WT cells) [2]: 0.2 nM
B6: 1912Ab3 (bispecific antibody, human IgG1, kappa, L234A L235A)
heavy: not shown
light: DIQLTQSPSFLSASVGDRVTITCRASQGISSYLAWYQQKPGKAPKLLIYAASTLQSGVPSRFSGSGSGTEFTLAVSSLQPEDFATYYCQQLNSYPYTFGQGTKLEIKRTVAAPSVFIFPPSDEQLKSGTASVVCLLNNFYPREAKVQWKVDNALQSGNSQESVTEQDSKDSTYSLSSTLTLSKADYEKHKVYACEVTHQGLSSPVTKSFNRGEC

EC50 of CD137 signaling (NFKB-luc, Jurkat reporter cells with target cells) [2]: 0.08 nM
B7: 1925Ab2 (bispecific antibody, human IgG1, kappa)
heavy: not shown
light: DIQMTQSPSSLSASVGDRVTITCKASQSVNNDVAWYQQKPGKAPKLLIYYASNRDTGVPSRFSGSGSGTDFTLTISSLQPEDFATYYCQQDYSSPYTFGQGTKLEIKRTVAAPSVFIFPPSDEQLKSGTASVVCLLNNFYPREAKVQWKVDNALQSGNSQESVTEQDSKDSTYSLSSTLTLSKADYEKHKVYACEVTHQGLSSPVTKSFNRGECGGGGSGGGGSGGGGSQVQLVESGGGVVQPGRSLRLSCAASGFTFSNYGMHWVRQAPGKCLEWVAIIWYDGINKYYADSVKGRFTISRDNSKNTLYLQMNSLKAEDTAVYYCARDQDYDILTGYYKEDYFDFWGQGTLVTVSSGGGGSGGGGSGGGGSGGGGSSYELTQPPSVSVSPGQTARITCSGDALPKKYAYWYQQKSGQAPVLVIYEDSKRPSGIPERFSGSSSGTMATLTISGAQVEDEADYYCYSTDSSGNRVFGCGTKLTVL

EC50 of CD137 signaling (NFKB-luc, Jurkat reporter cells co-cultured with NUGC4 cells) [2]: 0.047 nM
B8: 1901Ab2 (bispecific antibody, human IgG1, kappa, L234A L235A)
heavy: not shown
light: DIQLTQSPSFLSASVGDRVPITCRASQGISNFLAWYQQKPGKAPELLIHSASTLQSGVPSRFSGSGSGTEFTLTISNLQPQDFATYYCQQVNSYPLTFGGGTKVEIKRTVAAPSVFIFPPSDEQLKSGTASVVCLLNNFYPREAKVQWKVDNALQSGNSQESVTEQDSKDSTYSLSSTLTLSKADYEKHKVYACEVTHQGLSSPVTKSFNRGEC
